Experiment [1] deals with Family 2B encapsulin from S. griseus, expressed in E. coli (S. griseus). Description: cryo-EM 2D class averages.
Experiment [2] has as its target Family 2B encapsulin from S. griseus (Q54255), expressed in S. coelicolor (S. griseus). Nature of the experiment: cryo-EM 2D class averages.

Consider “cargo protein of the Family 2B encapsulin from S. griseus, expressed in E. coli (natural protein)”, for which the percent of encapsulins with apparent cargo in experiment [1] amounted to 34%.
In turn, “cargo protein of the encapsulin (A0A2X2LWM5), expressed in S. coelicolor (natural protein)” yielded a percent of particles with cargo in experiment [2] of 96%.

Source of the values: article PMC9309400.
